Data published in paper PMC6451128, “Structural and functional analysis of the nucleotide and DNA binding activities of the human PIF1 helicase”.

Legend:
Conditions in all cases: protein: recombinant; tags: His tag removed, GSRM left; label: 5' 32P (PNK)
hPIF1HD E307Q = molecular target: T1, hPIF1HD E307Q (human, UniProt Q9H611 206-620, E307Q); test: EMSA; no nucleotide; apparent; 20 mM HEPES-NaOH pH 7.5 (Results say pH 7.2), 135 mM NaCl, 5% glycerol, 1 mM DTT, 1 mg/ml BSA, 20 min at 20 C; 0.4 nM T(35); G4 assay: 0.1 nM G4 DNA, 2% PEG 8000 instead of glycerol, 5 uM T(35) competitor
T1 sequence: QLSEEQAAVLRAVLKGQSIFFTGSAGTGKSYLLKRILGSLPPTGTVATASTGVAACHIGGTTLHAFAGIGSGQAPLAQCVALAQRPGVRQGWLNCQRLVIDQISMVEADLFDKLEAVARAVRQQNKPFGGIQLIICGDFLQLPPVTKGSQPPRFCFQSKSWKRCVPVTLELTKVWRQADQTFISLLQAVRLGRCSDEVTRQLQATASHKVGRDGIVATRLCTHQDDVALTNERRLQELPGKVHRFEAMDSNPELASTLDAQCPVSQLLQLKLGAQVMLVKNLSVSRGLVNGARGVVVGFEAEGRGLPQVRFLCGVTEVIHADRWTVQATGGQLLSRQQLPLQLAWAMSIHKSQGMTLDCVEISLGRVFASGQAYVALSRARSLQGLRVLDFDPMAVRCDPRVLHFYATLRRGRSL

hPIF1HD K414A = molecular target: T2, hPIF1HD K414A (human, UniProt Q9H611 206-620, K414A); test: as above
T2 sequence: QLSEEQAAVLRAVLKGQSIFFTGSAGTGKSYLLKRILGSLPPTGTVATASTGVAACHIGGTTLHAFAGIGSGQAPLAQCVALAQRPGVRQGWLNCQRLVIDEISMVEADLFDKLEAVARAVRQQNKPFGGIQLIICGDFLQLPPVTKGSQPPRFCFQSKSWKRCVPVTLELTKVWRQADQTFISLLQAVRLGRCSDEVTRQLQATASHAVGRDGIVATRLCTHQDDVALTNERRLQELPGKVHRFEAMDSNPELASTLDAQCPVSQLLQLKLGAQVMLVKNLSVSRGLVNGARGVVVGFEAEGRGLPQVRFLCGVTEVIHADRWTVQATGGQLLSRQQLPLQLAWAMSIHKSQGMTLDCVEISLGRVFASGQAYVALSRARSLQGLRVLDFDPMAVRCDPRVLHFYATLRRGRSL

hPIF1HD P291A = molecular target: T3, hPIF1HD P291A (human, UniProt Q9H611 206-620, P291A); test: as above
T3 sequence: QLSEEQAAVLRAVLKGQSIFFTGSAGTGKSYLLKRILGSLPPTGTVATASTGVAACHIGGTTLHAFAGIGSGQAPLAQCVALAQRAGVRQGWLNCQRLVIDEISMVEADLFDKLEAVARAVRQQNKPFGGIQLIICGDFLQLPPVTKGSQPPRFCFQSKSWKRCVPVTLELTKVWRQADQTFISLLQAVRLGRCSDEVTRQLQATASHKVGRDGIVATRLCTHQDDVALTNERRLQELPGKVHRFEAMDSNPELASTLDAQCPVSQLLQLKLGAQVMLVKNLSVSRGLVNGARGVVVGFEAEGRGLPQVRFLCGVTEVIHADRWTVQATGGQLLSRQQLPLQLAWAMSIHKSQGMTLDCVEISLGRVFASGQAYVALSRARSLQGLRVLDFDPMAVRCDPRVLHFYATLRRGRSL

hPIF1HD F573A = molecular target: T4, hPIF1HD F573A (human, UniProt Q9H611 206-620, F573A); test: EMSA; no nucleotide; 20 mM HEPES-NaOH pH 7.5 (Results say pH 7.2), 135 mM NaCl, 5% glycerol, 1 mM DTT, 1 mg/ml BSA, 20 min at 20 C; 0.4 nM T(35); G4 assay: 0.1 nM G4 DNA, 2% PEG 8000 instead of glycerol, 5 uM T(35) competitor
T4 sequence: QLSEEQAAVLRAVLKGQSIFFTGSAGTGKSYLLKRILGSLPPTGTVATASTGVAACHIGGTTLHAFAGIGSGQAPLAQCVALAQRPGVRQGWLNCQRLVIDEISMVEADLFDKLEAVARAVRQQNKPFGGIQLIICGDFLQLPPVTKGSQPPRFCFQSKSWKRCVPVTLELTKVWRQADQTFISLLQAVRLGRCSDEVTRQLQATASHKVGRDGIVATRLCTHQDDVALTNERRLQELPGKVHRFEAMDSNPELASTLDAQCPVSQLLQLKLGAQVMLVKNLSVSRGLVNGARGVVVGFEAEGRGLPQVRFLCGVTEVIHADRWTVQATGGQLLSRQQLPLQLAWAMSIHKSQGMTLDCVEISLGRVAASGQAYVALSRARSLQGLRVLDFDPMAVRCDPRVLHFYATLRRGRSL

Binder: TTTTTTTTTTTTTTTTTTTTTTTTTTTTTTTTTTT (ssDNA) [poly-T(35)]
- Kd (hPIF1HD E307Q): 3.6 ± 0.5 nM
- Kd (hPIF1HD K414A): 1.6 ± 0.4 nM
- Kd (hPIF1HD P291A): 1.9 ± 0.6 nM
- binding signal (hPIF1HD F573A): > 50 fold decrease in affinity vs WT
